Source: publication PMC9260137 (Molecules and Cells, 2022)

Columns and labels:
purified protein [1] = substrate: CC(C)C[C@H](N)C(=O)O; assay: purified protein; details: oxidative deamination, co-substrate NAD+, 37 °C
purified protein [2] = substrate: CC(C)[C@H](N)C(=O)O; assay: purified protein; details: oxidative deamination, co-substrate NAD+, 37 °C
purified protein [3] = substrate: CC[C@H](C)[C@H](N)C(=O)O; assay: purified protein; details: oxidative deamination, co-substrate NAD+, 37 °C
purified protein [4] = substrate: NC(=O)c1ccc[n+]([C@@H]2O[C@H](COP(=O)(O)OP(=O)(O)OC[C@H]3O[C@@H](n4cnc5c(N)ncnc54)[C@H](O)[C@@H]3O)[C@@H](O)[C@H]2O)c1; assay: purified protein; details: 37 °C, amino acid co-substrate not given, varied: cofactor
SEC-MALS = biological target: the molecule itself; assay: SEC-MALS

B1: Leucine dehydrogenase from Pseudomonas aeruginosa (enzyme)
chain: MFDMMDAARLEGLHLAQDPATGLKAIIAIHSTRLGPALGGCRYLPYPNDEAAIGDAIRLAQGMSYKAALAGLEQGGGKAVIIRPPHLDNRGALFEAFGRFIESLGGRYITAVDSGTSSADMDCIAQQTRHVTSTTQAGDPSPHTALGVFAGIRASAQARLGSDDLEGLRVAVQGLGHVGYALAEQLAAVGAELLVCDLDPGRVQLAVEQLGAHPLAPEALLSTPCDILAPCGLGGVLTSQSVSQLRCAAVAGAANNQLERPEVADELEARGILYAPDYVINSGGLIYVALKHRGADPHSITAHLARIPARLTEIYAHAQADHQSPARIADRLAERILYGPQ
**Q.** B1 was tested. Which Km (purified protein [1]) did it give?
**A.** 1100 ± 100 µM

**Q.** And the Vmax (purified protein [1])?
**A.** 21100 µM/min/mg

**Q.** What about the kcat (purified protein [1]) of the same protein?
**A.** 5.2 ± 0.5 s⁻¹

**Q.** What about the kcat/Km (purified protein [1]) of the same protein?
**A.** 4300 ± 700 M⁻¹ s⁻¹

**Q.** What about the Km (purified protein [2]) of the same protein?
**A.** 500 ± 100 µM

**Q.** What about the Vmax (purified protein [2]) of the same protein?
**A.** 35000 µM/min/mg

**Q.** And the kcat (purified protein [2])?
**A.** 9.6 ± 0.8 s⁻¹

**Q.** What about the kcat/Km (purified protein [2]) of the same protein?
**A.** 14400 ± 900 M⁻¹ s⁻¹

**Q.** And the Km (purified protein [3])?
**A.** 400 ± 100 µM

**Q.** And the Vmax (purified protein [3])?
**A.** 7870 µM/min/mg

**Q.** And the kcat (purified protein [3])?
**A.** 1.8 ± 0.1 s⁻¹

**Q.** What about the kcat/Km (purified protein [3]) of the same protein?
**A.** 5800 ± 400 M⁻¹ s⁻¹

**Q.** What about the Km (purified protein [4]) of the same protein?
**A.** 200 ± 100 µM

**Q.** And the Vmax (purified protein [4])?
**A.** 23200 µM/min/mg

**Q.** And the “stoichiometry N” value (SEC-MALS)?
**A.** 2
